Broadly, the stoichiometry N is the number of molecules, sites or subunits per partner or assembly.

The results in this text go back to PMC6636998.

In assay [1] the target is pyruvate kinase M2 (PKM2), wild type, purified recombinant human (human) (UniProt P14618). Put plainly: native MS; nano-ESI, 10 µM PKM2 in 200 mM ammonium acetate pH 6.8, no FBP added (PKM2^apo*, <25% co-purified FBP); also with 300 µM Phe alone (fewer tetramers, more dimers).
For assay [2] the target is unchanged. In words: native MS; time course over 20 min, 10 µM PKM2 with 5 µM FBP and 400 µM Phe; ratio of the tetramer 32+ peak to the dimer 22+ peak, two-state sigmoidal model; dimers and monomers to tetramer.

Chain of pyruvate kinase M2 (PKM2), wild type, purified recombinant human, P14618-1 1-531 (enzyme; other documents disagree on this pair) (P14618 whole entry): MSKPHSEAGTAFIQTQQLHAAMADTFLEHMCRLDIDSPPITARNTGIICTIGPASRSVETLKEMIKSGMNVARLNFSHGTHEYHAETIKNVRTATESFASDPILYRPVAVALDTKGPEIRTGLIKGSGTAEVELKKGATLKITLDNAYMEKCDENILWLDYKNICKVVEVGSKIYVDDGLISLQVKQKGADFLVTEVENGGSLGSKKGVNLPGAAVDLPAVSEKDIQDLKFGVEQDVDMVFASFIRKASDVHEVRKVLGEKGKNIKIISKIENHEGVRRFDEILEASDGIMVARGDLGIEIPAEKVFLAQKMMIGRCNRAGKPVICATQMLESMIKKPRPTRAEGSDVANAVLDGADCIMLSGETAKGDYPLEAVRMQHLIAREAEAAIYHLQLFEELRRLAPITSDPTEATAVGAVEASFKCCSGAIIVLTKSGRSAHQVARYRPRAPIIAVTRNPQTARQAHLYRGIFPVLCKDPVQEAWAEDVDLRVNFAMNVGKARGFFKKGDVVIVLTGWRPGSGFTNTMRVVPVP

For the substance “pyruvate kinase M2 (PKM2), wild type, purified recombinant human, P14618-1 1-531 (enzyme; other documents disagree on this pair)”, the stoichiometry N in assay [1] was 2. In assay [2], the ktet (kinetics of tetramerisation with half-stoichiometric FBP and Phe) was 812 s.
